Patent publication US12397036B2, “Peptide exchange protein” (Cambridge Enterprise Limited, priority 2018, dated 2025)

B1: TAPBPR-Her2-scFv: recombinant TAPBPR fused to a scFv specific for Her2; SEQ ID NO: 8 (protein)
chain: MGTQEGWCLLLCLALSGAAETKPHPAEGQWRAVDVVLDCFLVKDGAHRGALASSEDRARASLVLKQVPVLDDGSLEDFTDFQGGTLAQDDPPIIFEASVDLVQIPQAEALLHADCSGKEVTCEISRYFLQMTETTVKTAAWFMANVQVSGGGPSISLVMKTPRVAKNEVLWHPTLNLPLSPQGTVRTAVEFQVMTQTQSLSFLLGSSASLDCGFSMAPGLDLISVEWRLQHKGRGQLVYSWTAGQGQAVRKGATLEPAQLGMARDASLTLPGLTIQDEGTYICQITTSLYRAQQIIQLNIQASPKVRLSLANEALLPTLICDIAGYYPLDVVVTWTREELGGSPAQVSGASFSSLRQSVAGTYSISSSLTAEPGSAGATYTCQVTHISLEEPLGASTQVVPPERRHVGGGGSGGGGSGGGGSTSADLGSRAMAQVQLVQSGAEVKKPGESLKISCKGSGYSFTSYWIAWVRQMPGKGLEYMGLIYPGDSDTKYSPSFQGQVTISVDKSVSTAYLQWSSLKPSDSAVYFCARHDVGYCSSSNCAKWPEYFQHWGQGTLVTVSSGGGGSGGGGSGGGGSQSVLTQPPSVSAAPGQKVTISCSGSSSNIGNNYVSWYQQLPGTAPKLLIYDHTNRPAGVPDRFSGSKSGTSASLAISGFRSEDEADYYCASWDYTLSGWVFGGGTKLTVLGAAAGGGGS
modifications: TAPBPR-Her2scFv
B2: mouse TAPBPR: exogenous luminal domains of mouse TAPBPR; SEQ ID NO: 22 (protein)
chain: DPPTAPTTAERQRQPTDIILDCFLVTEDRHRGAFASSGDRERALLVLKQVPVLDDGSLEGITDFQGSTETKQDSPVIFEASVDLVQIPQAEALLHADCSGKAVTCEISKYFLQARQEATFEKAHWFISNMQVSRGGPSVSMVMKTLRDAEVGAVRHPTLNLPLSAQGTVKTQVEFQVTSETQTLNHLLGSSVSLHCSFSMAPDLDLTGVEWRLQHKGSGQLVYSWKTGQGQAKRKGATLEPEELLRAGNASLTLPNLTLKDEGTYICQISTSLYQAQQIMPLNILAPPKVQLHLANKDPLPSLVCSIAGYYPLDVGVTWIREELGGIPAQVSGASFSSLRQSTMGTYSISSTVMADPGPTGATYTCQVAHVSLEEPLTTSMRVLPNPEQRGT
modifications: luminal domains of mouse TAPBPR

What was measured:
Assay type in all cases: cell-based
HLA-A2 = biological target: T1, HLA-A2 (Homo sapiens, UniProt P04439, D140Y/D185E/D98H/E176V/E277Q/G131W/G231S/I119V/I121R/I166T/I218V/L300P/L318F/N151K/N90K/P208A/P217A/Q86G/Q94H/R138H/R169H/T345S); experiment: NLV* and YLL* viral peptide loading on HeLaM-ABC^KO cells -/+ HLA-A2; conditions: for loading of viral peptides NLV* and YLL* onto surface expressed HLA-A2: 10 nM peptide 15 min
T1 construct: expressed in transfected cells; host or cells: HeLaM-HLA-ABC-KO
Protocol: For the histograms in A & C 100 nM of the indicated recombinant TAPBPR protein was used. […] The TCR is specific for […] peptide presented on HLA-A2 molecules.

[1] = biological target: T2, YLL/HLA-A2 complexes on SKBR3 and MCF-7 cells (Homo sapiens, UniProt P04439, D140Y/D185E/D98H/E176V/E277Q/G131W/G231S/I119V/I121R/I166T/I218V/L300P/L318F/N151K/N90K/P208A/P217A/Q86G/Q94H/R138H/R169H/T345S); experiment: TCR-like mAb LMP-1 staining of breast cancer cell lines
T2 construct: endogenous in cells; host or cells: SKBR3 and MCF-7
Protocol: (§1) Bar graphs show (B) the binding YLL* peptide and (C) the binding of TCR-like mAb reagent LMP-1 which recognises the EBV specific peptide YLL in the context of HLA-A2, when SKBR3 and MCF-7 cells were incubated with no peptide, peptide alone, or peptide in the presence of 100 nM soluble TAPBPR or 100 nM TAPBPR-Her2 antibody fusion protein.

HLA-A*68:02 = biological target: T3, HLA-A*68:02 (Homo sapiens, UniProt P04439, A269V/D140Y/D185E/E176V/E277Q/E87N/F33Y/G231S/I121R/I166T/I218V/L180W/L300P/L318F/N151K/P208A/P217A/Q86R/R138H/R169H/S129P/T345S/V36M); experiment: ETV* peptide loading on HeLaM, HeLaM+Her2 and HeLaM^Her2KO cells; conditions: Her2-dependent; 10 nM peptide 15 min
T3 construct: HLA-A68 (MHC class I) expressed on HeLa; endogenous in cells; host or cells: HeLaM and derivatives (TAPBPR-KO with or without TAPBPR/tapasin constructs, +Her2, Her2-KO, +PDL1, pD-GFP); in some arms HeLaM-HLA-ABC-KO re-expressing HLA-A*68:02
Source text: Note, there is endogenous Her2 on HeLa.

[2] = biological target: T4, HLA-A2 on SKBR3 and MCF-7 cells (Homo sapiens, UniProt P04439, D140Y/D185E/D98H/E176V/E277Q/G131W/G231S/I119V/I121R/I166T/I218V/L300P/L318F/N151K/N90K/P208A/P217A/Q86G/Q94H/R138H/R169H/T345S); experiment: YLL* peptide loading on breast cancer cell lines; conditions: for loading of antigenic peptide onto MCF-7 and SKBR3 cells: 100 nM protein, YLL* peptide
T4 construct: endogenous in cells; host or cells: SKBR3 and MCF-7
Protocol: as §1

[3] = biological target: T5, HLA-A68 (MHC class I) expressed on HeLa cells (Homo sapiens, UniProt P04439, A269V/D140Y/D185E/E176V/E277Q/E87N/F33Y/G231S/I121R/I166T/I218V/L180W/L300P/L318F/N151K/P208A/P217A/Q86R/R138H/R169H/S129P/T345S/V36M); experiment: ETV* peptide loading on HeLa cells by exogenous mouse TAPBPR
T5 construct: HLA-A68 (MHC class I) expressed on HeLa; endogenous in cells; host or cells: HeLaM and derivatives (TAPBPR-KO with or without TAPBPR/tapasin constructs, +Her2, Her2-KO, +PDL1, pD-GFP); in some arms HeLaM-HLA-ABC-KO re-expressing HLA-A*68:02

Row | Molecule | peptide loading on cells lacking HLA-A, -B and -C expression (HLA-A2) | loading of viral peptides NLV* and YLL* onto surface expressed HLA-A2 (HLA-A2) | loading of viral peptides NLV* and YLL* onto surface expressed HLA-A2 (HLA-A2; listed as TAPBPR-Her2-svFc) | YLL/HLA-A2 complexes accessible for TCR binding versus soluble TAPBPR+peptide or peptide alone [1] | binding of TCR-like mAb LMP-1 to treated cells ([1]; fusion protein and peptide) | loading of exogenous peptide ETV* onto surface of HeLaM cells (HLA-A*68:02) | loading of antigenic peptide onto MCF-7 and SKBR3 cells [2] | loading of antigenic peptide onto MCF-7 and SKBR3 cells ([2]; listed as TAPBPR-her 2 antibody fusion protein) | peptide loading on SKBR3 cell line ([2]; low MHC I expression) | loading of ETVSK*QSNV (ETV*) to HLA-A68 [3] | peptide loading efficiency relative to human TAPBPR [3]
1 | B1 | no peptide loading was observed | could load fluorescent variants | shown to load viral peptides onto HeLa cells expressing HLA-A2 | significantly more YLL/HLA-A2 complexes were accessible for TCR binding | bound extremely well | very efficient at loading exogenous peptide | efficiently loads antigenic peptides onto both of these breast cancer cell lines | works extremely efficiently on both these breast cancer cell lines | efficient peptide loading |  | 
2 | B2 |  |  |  |  |  |  |  |  |  | shown to load fluorescent human neoantigen peptide | less efficient than human TAPBPR
